The source of these data is US20060148746, “Nucleic acid inhibitors of glutamate receptors” (published 2006).

For this series, the target named is GluR2Qflip AMPA receptor (homomeric channel) (UniProt P19491-2 P19491-2:22-883). Description: inhibition; intrinsic KI, whole-cell current, competitive; pH 7.4, 22 C, -60 mV. Particulars: tags: expressed in HEK-293S cells (co-transfected with GFP and SV40 large T antigen); chain copies: 4. On the procedure: Glutamate, a natural neurotransmitter, was used as the activating ligand, and the resulting receptor response in a single cell was recorded. Recording electrodes were made from glass capillary pipettes and fire polished. The electrode resistance was ˜3M Ω when filled with the electrode solution. The electrode solution contained 110 mM CsF, 30 mM CsCl, 4 mM MaCl, 0.5 mM CaCl₂, 5 mM EGTA, and 10 mM Hepes (pH 7.4 adjusted by CsOH). The external bath solution contained 150 mM NaCl, 3 mM KCl, 1 mM CaCl₂, 1 mM MgCl₂ and 10 mM Hepes (pH7.4 adjusted by NaOH). The GFP fluorescence in transfected cells was visualized using an Axiovert S100 microscope with a fluorescent detection system from Carl Zeiss (Thornwood, N.Y.). The whole-cell current was recorded using an Axonpatch-200B amplifier at a cutoff frequency of 2-20 kHz by a built-in eight-pole Bessel filter and digitized at 5-50 kHz sampling frequency using a Digidata 1322A from Axon Instruments (Union City, Calif.). The data acquisition software was pCLAMP 8, also from Axon Instruments.
Chain of GluR2Qflip AMPA receptor (homomeric channel) (P19491 other isoform, or with tags, fused parts or gaps): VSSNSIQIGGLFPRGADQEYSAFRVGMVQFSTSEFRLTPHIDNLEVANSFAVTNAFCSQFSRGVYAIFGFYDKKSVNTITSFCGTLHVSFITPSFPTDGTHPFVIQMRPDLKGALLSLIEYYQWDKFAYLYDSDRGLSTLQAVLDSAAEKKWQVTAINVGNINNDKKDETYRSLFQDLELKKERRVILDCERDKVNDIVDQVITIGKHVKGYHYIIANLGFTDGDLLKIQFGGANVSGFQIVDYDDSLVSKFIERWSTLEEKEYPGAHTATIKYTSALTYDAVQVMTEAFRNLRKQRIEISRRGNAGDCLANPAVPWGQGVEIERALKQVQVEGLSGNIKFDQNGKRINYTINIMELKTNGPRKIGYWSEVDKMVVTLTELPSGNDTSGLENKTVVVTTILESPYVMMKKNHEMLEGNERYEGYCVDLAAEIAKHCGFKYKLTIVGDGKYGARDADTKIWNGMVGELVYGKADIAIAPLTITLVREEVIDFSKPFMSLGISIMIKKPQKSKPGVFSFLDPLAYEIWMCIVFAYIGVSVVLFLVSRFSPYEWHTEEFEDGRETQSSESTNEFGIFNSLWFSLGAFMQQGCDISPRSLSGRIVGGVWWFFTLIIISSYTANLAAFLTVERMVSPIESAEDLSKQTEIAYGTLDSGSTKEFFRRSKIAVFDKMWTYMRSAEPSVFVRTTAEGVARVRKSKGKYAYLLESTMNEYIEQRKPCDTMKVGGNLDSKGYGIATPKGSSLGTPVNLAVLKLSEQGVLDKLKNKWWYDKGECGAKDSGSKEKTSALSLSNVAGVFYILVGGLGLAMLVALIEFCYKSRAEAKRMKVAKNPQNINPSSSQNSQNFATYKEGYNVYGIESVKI
The present invention relates to the discovery and characterization of a group of water-soluble AMPA receptor inhibitors, which are RNA aptamers that can fold into unique three-dimensional structures that confer high affinity and specificity against biological targets. […]

Usually Ki stands for a dissociation constant, usually derived from enzyme kinetics or from competition with a known ligand. High values mean lower affinity, low ones higher affinity.

B1: AN57 (57-nt minimal aptamer, M1+M2 mixture) (ssRNA)
RNA: GGGCGAAUUCACUGCCAUCUAGGCAGUAACCAGGAGUUAGUAGGACAAGUUUCGUCC
B1 registered an inhibition constant (Ki) of 133 nM.
